Assay [1] has as its target T1, human CTGF protein (R&D, Cat No. 9190-CC) (human, UniProt P29279 27-349).
T1 construct: Bought protein; also called CTGF recombinant protein; CTGF (R&D)
T1 sequence: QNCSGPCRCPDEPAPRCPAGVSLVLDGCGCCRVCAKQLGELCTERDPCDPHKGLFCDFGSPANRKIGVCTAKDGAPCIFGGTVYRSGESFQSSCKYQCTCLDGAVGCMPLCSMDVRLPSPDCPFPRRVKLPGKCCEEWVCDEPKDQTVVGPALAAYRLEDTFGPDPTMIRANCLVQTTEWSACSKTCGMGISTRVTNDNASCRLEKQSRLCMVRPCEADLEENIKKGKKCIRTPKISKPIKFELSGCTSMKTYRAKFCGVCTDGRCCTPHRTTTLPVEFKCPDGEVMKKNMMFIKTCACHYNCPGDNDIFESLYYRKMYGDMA
The assay can be described thus: ELISA, plate coated with CTGF (R&D 9190-CC). As for the experimental part: The binding activity of anti-human CTGF antibody to human CTGF protein was tested by ELISA assay and Biacore. A 96-well microtiter plate was directly coated with the CTGF recombinant protein. The signal strength upon the addition of the antibody was used to determine the binding activity of the antibody to CTGF. The specific experimental procedures were as follows:
The CTGF protein (R&D, Cat No. 9190-CC) was diluted with PBS, pH 7.4 (Shanghai Yuanpei, Cat No. B320) buffer to a concentration of 0.2 μg/ml, 50 μl/well of which was added into the 96-well microtiter plate (Corning, Cat No. CLS3590-100EA), and incubated in an incubator at 37° C. for 2 hours or at 4° C. overnight (16-18 hours). The liquid was removed, 250 μl/ well blocking solution (5% skim milk (BD skim milk, Cat No.232100) diluted in PBS) was added, and incubated in an incubator at 37° C. for 3 hours or at 4° C. overnight (16-18 hours) for blocking. After the blocking was finished, the blocking solution was removed, the plate was washed for 5 times with PBST buffer (PBS containing 0.1% Tween-20, pH 7.4), 50 μl/well of various concentrations of each of the test antibodies (antibodies purified from hybridoma or humanized antibodies) diluted with sample dilution solution were added, and incubated in an incubator at 37° C. for 1 hours. After the incubation was finished, the plate was washed for 3 times with PBST, 50 μl/well of HRP-labeled goat anti-mouse secondary antibody (Jackson Immuno Research, Cat No. 115-035-003) or goat anti-human secondary antibody (Jackson Immuno Research, Cat No. 109-035-003) diluted with sample dilution solution was added, and incubated at 37° C. for 1 hour. The plate was washed for 3 times with PBST, 50 μl/well of TMB chromogenic substrate (KPL, Cat No. 52-00-03) was added, incubated at room temperature for 5-10min, and 50 μl/well of 1 M H₂SO₄ was added to stop the reaction. The absorbance value was read by a microplate reader (Molecular Devices, VERSA max) at a wavelength of 450 nm, and the data was analyzed with GraphPad Prism 5. The binding of CTGF antibody to human CTGF protein was calculated as EC50 value.
For orientation: In an ELISA, binding on a coated surface is turned into a signal by an enzyme label.

For assay [2], the target named is T2, human CTGF (antigen of the Biacore assays) (human, UniProt P29279 27-349).
T2 construct: also called antigen human CTGF; human CTGF protein
T2 sequence (looked up): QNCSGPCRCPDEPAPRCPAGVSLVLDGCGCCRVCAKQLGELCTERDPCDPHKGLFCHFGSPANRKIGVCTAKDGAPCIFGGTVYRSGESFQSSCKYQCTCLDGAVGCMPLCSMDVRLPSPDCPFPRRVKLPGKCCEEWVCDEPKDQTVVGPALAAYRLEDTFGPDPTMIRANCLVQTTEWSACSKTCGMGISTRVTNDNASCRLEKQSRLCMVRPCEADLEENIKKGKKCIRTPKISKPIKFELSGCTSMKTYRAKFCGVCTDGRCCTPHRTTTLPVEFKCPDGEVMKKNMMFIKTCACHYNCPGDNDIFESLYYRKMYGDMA
In words: Biacore, CTGF immobilised, antibody 150 µg/ml then 50 nM TGF-β1 (competitor TGF-β1). As for the experimental part:
First, the antigen human CTGF was immobilized onto a CMS biosensor chip (Cat. # BR-1005-30, GE) by amino coupling, with an immobilization level of 1500 RU, and then a high concentration of CTGF antibody (150 μg/ml) was allowed to flow through the surface of the chip for 150 s; 50 nM TGF-β1 protein was injected for 120 s, and the reaction signals were detected in real time with the Biacore T200 instrument to generate a binding and dissociation curve. After the dissociation was completed in each of the experimental cycles, the biosensor chip was washed and regenerated with regeneration buffer.
The resulting experimental data were statistically analyzed with GE Biacore T200 Evaluation version 3.0 software.
For orientation: In SPR one partner is held on a chip, and binding of the other changes the refractive index at the surface.

B1: Hu164-77wl (antibody, human IgG1, lambda, V domains shown)
VH: EVQLQESGPGLVKPSQTLSLTCTVSGFSISTFGVHWIRQHPGKGLEWIGVIWRRGGTDYNAAFMSRVTISKDTSKNQVSLKLSSVTAADTAVYYCARDGGFDYWGQGTTVTVSS
VL: ETVVTQEPSLTVSPGGTVTLTCRSSIGAVTTSNYANWVQQKPGQAFRGLIGGTSNRAPWTPARFSGSLLGGKAALTLSGVQPEDEAEYYCALWYSTHYVFGGGTKLTVLG
The term EC50 denotes the midpoint of the concentration-response curve. A low value points to higher potency in that assay. In turn, B1 had an EC50 in assay [1] of 0.055 nM.

B2: Hu164-57wl (antibody, human IgG1, lambda, V domains shown)
VH: EVTLKESGPVLVKPTETLTLTCTVSGFSLSTFGVHWIRQPPGKALEWLAVIWRRGGTDYNAAFMSRLTISKDTSKSQVVLTMTNMDPVDTATYYCARDGGFDYWGQGTTVTVSS
VL: ETVVTQEPSLTVSPGGTVTLTCRSSIGAVTTSNYANWVQQKPGQAFRGLIGGTSNRAPWTPARFSGSLLGGKAALTLSGVQPEDEAEYYCALWYSTHYVFGGGTKLTVLG
Take B2: the EC50 in assay [1] is 0.044 nM.

B3: Hu164-87wl (antibody, human IgG1, lambda, V domains shown)
VH: EVQLQESGPGLVKPSQTLSLTCTVSGFSISTFGVHWIRQHPGKGLEWLGVIWRRGGTDYNAAFMSRLTISKDTSKNQVSFKLSSVTAADTAVYYCARDGGFDYWGQGTTVTVSS
VL: ETVVTQEPSLTVSPGGTVTLTCRSSIGAVTTSNYANWVQQKPGQAFRGLIGGTSNRAPWTPARFSGSLLGGKAALTLSGVQPEDEAEYYCALWYSTHYVFGGGTKLTVLG
B3 showed an EC50 in assay [1] of 0.055 nM.

B4: positive control CTGF antibody mAb1 (antibody, V domains shown)
VH: EGQLVQSGGGLVHPGGSLRLSCAGSGFTFSSYGMHWVRQAPGKGLEWVSGIGTGGGTYSTDSVKGRFTISRDNAKNSLYLQMNSLRAEDMAVYYCARGDYYGSGSFFDCWGQGTLVTVSS
VL: DIQMTQSPSSLSASVGDRVTITCRASQGISSWLAWYQQKPEKAPKSLIYAASSLQSGVPSRFSGSGSGTDFTLTISSLQPEDFATYYCQQYNSYPPTFGQGTKLEIKR
notes: Positive control, from CN1829740B; also called pamrevlumab; FG-3019
With B4, in assay [2], the “Function-blocking percentage (%)” value was 41.3%. In assay [1], this molecule displayed an EC50 of 0.067 nM.

B5: Hu147-22wk (antibody, human IgG1, kappa, V domains shown)
VH: EVQLVESGGGLVQPGGSLRLSCAASGFTFNTYAMNWVRQAPGKGLEWVARIRTKSNNYATYYADSVKDRFTISRDDSKNSLYLQMNSLKTEDTAVYYCVETGFAYWDQGTLVTVSS
VL: EIVLTQSPATLSLSPGERATLSCSASSSVSYMHWFQQKPGQSPKLLIYSTSNLASGIPARFSGSGSGTDYTLTISSLEPEDFAVYYCQQRSSYPLTFGQGTKLEIKR
As for B5, in assay [2], the “Function-blocking percentage (%)” value amounted to 52.3%. The molecule further gave an EC50 in assay [1] of 0.056 nM.

B6: Hu147-21wk (antibody, human IgG1, kappa, V domains shown)
VH: EVQLVESGGGLVQPGGSLRLSCAASGFTFNTYAMNWVRQAPGKGLEWVARIRTKSNNYATYYADSVKDRFTISRDDSKNSLYLQMNSLKTEDTAVYYCVETGFAYWDQGTLVTVSS
VL: EIVLTQSPATLSLSPGERATLSCSASSSVSYMHWFQQKPGQSPRLLIYSTSNLASGIPARFSGSGSGTDYTLTISSLEPEDFAVYYCQQRSSYPLTFGQGTKLEIKR
Take B6: the “Function-blocking percentage (%)” value in assay [2] was determined as 51.6%. This molecule also registered an EC50 in assay [1] of 0.067 nM.

B7: Hu147-23wk (antibody, human IgG1, kappa, V domains shown)
VH: EVQLVESGGGLVQPGGSLRLSCAASGFTFNTYAMNWVRQAPGKGLEWVARIRTKSNNYATYYADSVKDRFTISRDDSKNSLYLQMNSLKTEDTAVYYCVETGFAYWDQGTLVTVSS
VL: EIVLTQSPATLSLSPGERATLSCSASSSVSYMHWFQQKPGQSPKLWIYSTSNLASGVPARFSGSGSGTDYTLTISSLEPEDFAVYYCQQRSSYPLTFGQGTKLEIKR
Consider B7, for which the “Function-blocking percentage (%)” value in assay [2] is 54.6%. For the same molecule, in assay [1], the EC50 is 0.058 nM.

B8: Hu147-32wk (antibody, human IgG1, kappa, V domains shown)
VH: EVQLVESGGGLVQPGGSLRLSCAASGFSFNTYAMNWVRQAPGKGLEWVARIRTKSNNYATYYADSVKDRFTISRDDSESSLYLQMNSLKTEDTAVYYCVETGFAYWDQGTLVTVSS
VL: EIVLTQSPATLSLSPGERATLSCSASSSVSYMHWFQQKPGQSPKLLIYSTSNLASGIPARFSGSGSGTDYTLTISSLEPEDFAVYYCQQRSSYPLTFGQGTKLEIKR
On to B8, for which the “Function-blocking percentage (%)” value in assay [2] came to 55.2%. Besides, the midpoint of the response in assay [1], the EC50, lay at 0.063 nM.

B9: Hu147-31wk (antibody, human IgG1, kappa, V domains shown)
VH: EVQLVESGGGLVQPGGSLRLSCAASGFSFNTYAMNWVRQAPGKGLEWVARIRTKSNNYATYYADSVKDRFTISRDDSESSLYLQMNSLKTEDTAVYYCVETGFAYWDQGTLVTVSS
VL: EIVLTQSPATLSLSPGERATLSCSASSSVSYMHWFQQKPGQSPRLLIYSTSNLASGIPARFSGSGSGTDYTLTISSLEPEDFAVYYCQQRSSYPLTFGQGTKLEIKR
Regarding B9, the “Function-blocking percentage (%)” value in assay [2] is 55%. In addition, in assay [1], the EC50 is 0.056 nM.

B10: Hu147-33wk (antibody, human IgG1, kappa, V domains shown)
VH: EVQLVESGGGLVQPGGSLRLSCAASGFSFNTYAMNWVRQAPGKGLEWVARIRTKSNNYATYYADSVKDRFTISRDDSESSLYLQMNSLKTEDTAVYYCVETGFAYWDQGTLVTVSS
VL: EIVLTQSPATLSLSPGERATLSCSASSSVSYMHWFQQKPGQSPKLWIYSTSNLASGVPARFSGSGSGTDYTLTISSLEPEDFAVYYCQQRSSYPLTFGQGTKLEIKR
Take B10: in assay [2], the “Function-blocking percentage (%)” value stood at 57.3%. For the same molecule, the EC50 in assay [1] was determined as 0.054 nM.

B11: Hu147-11wk (antibody, human IgG1, kappa, V domains shown)
VH: EVQLVESGGGLVQPGGSLRLSCAASGFTFSTYAMNWVRQAPGKGLEWVGRIRTKSNNYATYYADSVKDRFTISRDDSKNSLYLQMNSLKTEDTAVYYCVETGFAYWDQGTLVTVSS
VL: EIVLTQSPATLSLSPGERATLSCSASSSVSYMHWFQQKPGQSPRLLIYSTSNLASGIPARFSGSGSGTDYTLTISSLEPEDFAVYYCQQRSSYPLTFGQGTKLEIKR
B11: in assay [2], the “Function-blocking percentage (%)” value was determined as 50.8%. Also, a half-maximal effect in assay [1] (EC50) was put at 0.045 nM.

B12: Hu147-13wk (antibody, human IgG1, kappa, V domains shown)
VH: EVQLVESGGGLVQPGGSLRLSCAASGFTFSTYAMNWVRQAPGKGLEWVGRIRTKSNNYATYYADSVKDRFTISRDDSKNSLYLQMNSLKTEDTAVYYCVETGFAYWDQGTLVTVSS
VL: EIVLTQSPATLSLSPGERATLSCSASSSVSYMHWFQQKPGQSPKLWIYSTSNLASGVPARFSGSGSGTDYTLTISSLEPEDFAVYYCQQRSSYPLTFGQGTKLEIKR
Consider B12, for which the “Function-blocking percentage (%)” value in assay [2] came out at 53.3%. In assay [1], the EC50 turned out to be 0.043 nM.

B13: Hu164-68wl (antibody, human IgG1, lambda, V domains shown)
VH: EVTLKESGPVLVKPTETLTLTCTVSGFSLSTFGVHWIRQPPGKGLEWLGVIWRRGGTDYNAAFMSRLTISKDTSKSQVVFTMTNMDPVDTATYYCARDGGFDYWGQGTTVTVSS
VL: ETVVTQEPSFSVSPGGTVTLTCRSSIGAVTTSNYANWVQQTPGQAFRGLIGGTSNRAPGVPDRFSGSILGNKAALTITGAQADDESDYYCALWYSTHYVFGGGTKLTVLG
As for B13, in assay [1], a half-maximal response (EC50) required 0.069 nM. In other words, the picomolar range.

B14: Hu164-69wl (antibody, human IgG1, lambda, V domains shown)
VH: EVTLKESGPVLVKPTETLTLTCTVSGFSLSTFGVHWIRQPPGKGLEWLGVIWRRGGTDYNAAFMSRLTISKDTSKSQVVFTMTNMDPVDTATYYCARDGGFDYWGQGTTVTVSS
VL: ESVVTQPPSVSGAPGQRVTISCRSSIGAVTTSNYANWVQQLPGTAFKGLIGGTSNRAPGVPDRFSGSKSGTSASLAITGLQAEDEADYYCALWYSTHYVFGGGTKLTVLG
B14 had an EC50 in assay [1] of 0.063 nM.

For the origin of these results see US20220324953A1 (JIANGSU HENGRUI MEDICINE, published 2022).
